{"source": "patent US20230212319A1", "about": "“NOVEL ANTIGEN BINDING DOMAINS AND SYNTHETIC ANTIGEN RECEPTORS INCORPORATING THE SAME” (University of Southern California, priority 2020, published 2023)", "molecules": {"B1": {"name": "SEQ ID NO: 22293: bispecific CD19xCD20 SAR with RZIP leucine zipper domain on hu-mR005-1 vL and CD20-VHH-USC1-2HCD26 on the vH domain (protein)", "chain": "MALPVTALLLPLALLLHAARPACMDPDLEIRAAFLRQRNTALRTEVAELEQEVQRLENEVSQYETRYGPLGGGKGTGGGGSGGGGSGGGGSEFDIQMTQSPSSLSASVGDRVTITCKASDHINNWLAWYQQKPGQAPKLLIYGATTLETGVPSRFSGSGSGTDYTLTISSLQPEDFATYYCQQSWNTPWTFGQGTKLEIKRLEDLKNVFPPEVAVFEPSEAEISHTQKATLVCLATGFYPDHVELSWWVNGKEVHSGVCTDPQPLKEQPALNDSRYCLSSRLRVSATFWQNPRNHFRCQVQFYGLSENDEWTQDRAKPVTQIVSAEAWGRADCGFTSESYQQGVLSATILYEILLGKATLYAVLVSALVLMAMVKRKDSRGRAKRSGSGATNFSLLKQAGDVEENPGPTSATMDWIWRILFLVGAATGAHSGPEVQLVESGGGLVQAGGSLRLSCAASGRTFSMGWFRQAPGKEREFVAAITYSGGSPYYADSVKGRFTISRDNAKNTVYLQMNSLKPEDTAVYYCAANPTYGSDWNAENWGQGTQVTVSSGSGGGGSGGGGSGGGGSFEQVQLQQPGAELVKPGASVKMSCKASGYAFSSYWINWMKQKPGQGLEWIGQIYPGDGDTNYNGKFKGRATLTADTSSSTAYMQLSSLTSEDSAVYFCARSITTVVGCAMDYWGQGTSVTVSSTRIQNPDPAVYQLRDSKSSDKSVCLFTDFDSQTNVSQSKDSDVYITDKCVLDMRSMDFKSNSAVAWSNKSDFACANAFNNSIIPEDTFFPSPESSCDVKLVEKSFETDTNLNFQNLSVIGFRILLLKVAGFNLLMTLRLWSSRAKRSGSGVKQTLNFDLLKLAGDVESNPGPSRGHMTEYKPTVRLATRDDVPRAVRTLAAAFADYPATRHTVDPDRHIERVTELQELFLTRVGLDIGKVWVADDGAAVAVWTTPESVEAGAVFAEIGPRMAELSGSRLAAQQQMEGLLAPHRPKEPAWFLATVGVSPDHQGKGLGSAVVLPGVEAAERAGVPAFLETSAPRNLPFYERLGFTVTADVEVPEGPRTWCMTRKPGA"}, "B2": {"name": "22293 (protein)", "chain": "B1 chain"}, "B3": {"name": "SEQ ID NO: 22294: RZIP domain attached directly to truncated TCR chain [hTCRb-wt-opt2-6MD] with a short GS linker, without Ig or long linker (protein)", "chain": "MALPVTALLLPLALLLHAARPQLQLQESGPGLVKPSETLSLTCTVSGDSISSGDYYWGWIRQPPGKGLEWIGHIYYSGVTYYNPSLKSRVTISVDTSRNQFSLKLSSVTAADTAVYYCTREDSSNWRSRGQGTLVTVSSLEGSIPEDTFFPSPESSCDVKLVEKSFETDTNLNFQNLSVIGFRILLLKVAGFNLLMTLRLWSSRAKRSGSGVKQTLNFDLLKLAGDVESNPGPTSATMDWIWRILFLVGAATGAHSEFMDPDLEIRAAFLRQRNTALRTEVAELEQEVQRLENEVSQYETRYGPLGGGKTRGSGRADCGFTSESYQQGVLSATILYEILLGKATLYAVLVSALVLMAMVKRKDSRGRAKRSGSGATNFSLLKQAGDVEENPGPSRGHMTEYKPTVRLATRDDVPRAVRTLAAAFADYPATRHTVDPDRHIERVTELQELFLTRVGLDIGKVWVADDGAAVAVWTTPESVEAGAVFAEIGPRMAELSGSRLAAQQQMEGLLAPHRPKEPAWFLATVGVSPDHQGKGLGSAVVLPGVEAAERAGVPAFLETSAPRNLPFYERLGFTVTADVEVPEGPRTWCMTRKPGA"}, "B4": {"name": "22287 (protein)", "chain": "MALPVTALLLPLALLLHAARPACEVQLLESGGGLIQPGGSLRLSCAASGFTFSSHAMTWVRQAPGKGLEWVSAISGSGDYTHYADSVKGRFTISRDNSKNTVYLQMNSLRAEDSAVYYCAKDEDGGSLLGHRGQGTLVTVSSGTGGGGSGGGGSGGGGSEFDIQMTQSPSSLSASVGDRVTITCKASDHINNWLAWYQQKPGQAPKLLIYGATTLETGVPSRFSGSGSGTDYTLTISSLQPEDFATYYCQQSWNTPWTFGQGTKLEIKRLEGQPKANPTVTLFPPSSEELQANKATLVCLISDFYPGAVTVAWKADGSPVKAGVETTKPSKQSNNKYAASSYLSLTPEQWKSHRSYSCQVTHEGSTVEKTVAPTECSGRADCGFTSESYQQGVLSATILYEILLGKATLYAVLVSALVLMAMVKRKDSRGRAKRSGSGATNFSLLKQAGDVEENPGPTSTMDWIWRILFLVGAATGAHSLFNQEVQIPLTESYCGPCPKNWICYKNNCYQFFDESKNWYESQASCMSQNASLLKVYSKEDQDLLKLVKSAHWMGLVHIPTNGSWQWEDGSILSPNLLTIIEMQKGDCALYASSFKGYIENCSTPNTYICMQRTVSGGGGSGGGGSGGGGDLFNQEVQIPLTESYCGPCPKNWICYKNNCYQFFDESKNWYESQASCMSQNASLLKVYSKEDQDLLKLVKSAHWMGLVHIPTNGSWQWEDGSILSPNLLTIIEMQKGDCALYASSFKGYIENCSTPNTYICMQRTVGSGGGGSGGGGSGGGGSFEQVQLQQPGAELVKPGASVKMSCKASGYAFSSYWINWMKQKPGQGLEWIGQIYPGDGDTNYNGKFKGRATLTADTSSSTAYMQLSSLTSEDSAVYFCARSITTVVGCAMDYWGQGTSVTVSSTRASTKGPSVFPLAPSSKSTSGGTAALGCLVKDYFPEPVTVSWNSGALTSGVHTFPAVLQSSGLYSLSSVVTVPSSSLGTQTYICNVNHKPSNTKVDKRVEPKSCIPEDTFFPSPESSCDVKLVEKSFETDTNLNFQNLSVIGFRILLLKVAGFNLLMTLRLWSSRAKRSGSGVKQTLNFDLLKLAGDVESNPGPSRGHMTEYKPTVRLATRDDVPRAVRTLAAAFADYPATRHTVDPDRHIERVTELQELFLTRVGLDIGKVWVADDGAAVAVWTTPESVEAGAVFAEIGPRMAELSGSRLAAQQQMEGLLAPHRPKEPAWFLATVGVSPDHQGKGLGSAVVLPGVEAAERAGVPAFLETSAPRNLPFYERLGFTVTADVEVPEGPRTWCMTRKPGA"}}, "type_in_all_cases": "cell-based", "key": {"[1]": {"test_system": "LNCaP cells", "experiment": "JNG assay, co-culture with LNCaP cells", "conditions": "for redirection to LNCaP cells: LNCaP (PSMA+) cells in the presence of SAR adaptor CD8SP-PSMA-USC76-chVH-EZIP (SEQ ID NO: 23118)", "summary_of_the_method": "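GFP expression induced through the NFAT pathway was monitored by FACS once SAR-bearing Jurkat reporters had been cultured with target cells at an approximate 1:2 ratio for 4 to 18 hours; parental reporter cells served as the baseline.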"}, "[2]": {"test_system": "L363 cells", "experiment": "JNG assay, co-culture with L363 cells", "conditions": "for GFP induction: L363 cells (BCMA+), only in the presence of SAR adaptor BCMA-FHVH-74-EZIP (SEQ ID NO: 23119)", "summary_of_the_method": "(§1)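 Jurkat-NFAT-GFP (JNG) cells stably expressing SAR constructs via lentiviral transduction and puromycin/blasticidin selection were cocultured with target cells at E:T ~1:2 for ~4–18 h. NFAT-driven GFP was measured by FACS versus parental JNG cells; scores +/- to 5+ denote ~5–50% GFP-positive cells.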"}, "[3]": {"test_system": "RAJI cells", "experiment": "JNG assay, co-culture with RAJI cells", "conditions": "JNG cells expressing construct, co-culture with Raji", "summary_of_the_method": "as §1"}}, "data": [{"molecule": "B1", "values": [{"measurement": "redirection to LNCaP cells", "setting": "[1]", "value": "could be redirected"}, {"measurement": "GFP induction", "setting": "[2]", "value": "robust induction of GFP"}]}, {"molecule": "B2", "values": [{"measurement": "NFAT-GFP ASSAY: LNCaP with PSMA-USC76-chVH-EZIP", "setting": "[1]; LNCaP in presence of SAR adaptor PSMA-USC76-chVH-EZIP", "value": "+5.5"}, {"measurement": "NFAT-GFP ASSAY: L363 with BCMA-FHVH-74-EZIP", "setting": "[2]; L363 in presence of SAR adaptor BCMA-FHVH-74-EZIP", "value": "+3"}]}, {"molecule": "B3", "values": [{"measurement": "redirection to LNCaP cells", "setting": "[1]", "value": "Weaker results"}, {"measurement": "GFP induction", "setting": "[2]", "value": "Weaker results"}]}, {"molecule": "B4", "values": [{"measurement": "NFAT-GFP ASSAY: LNCaP with PSMA-USC76-chVH-G4S-ULBP2-S3", "setting": "[1]; LNCaP in presence of SAR adaptor PSMA-USC76-chVH-G4S-ULBP2-S3", "value": "+ (refer to approximately 5%, 10%, 20%, 30%, 40% and 50% GFP positive cells)"}, {"measurement": "NFAT-GFP ASSAY: Raji", "setting": "[3]", "value": "3+ (refer to approximately 5%, 10%, 20%, 30%, 40% and 50% GFP positive cells)"}, {"measurement": "NFAT-GFP ASSAY: L363", "setting": "[2]; co-culture with L363", "value": "+/- (refer to approximately 5%, 10%, 20%, 30%, 40% and 50% GFP positive cells)"}]}]}
